In patent publication US8536117B2, “Oxidant resistant apolipoprotein A-1 and mimetic peptides” (The Cleveland Clinic Foundation, priority 2007, dated 2013):
“Also recorded” adds a separate entry of the source.

Tests used:
[1] = Alpha helix content by CD (K2d algorithm); type: physicochemical; settings: for alpha helix content: K2d algorithm, unmodified protein; for loss of alpha helix content after MPO modification: MPO/H2O2 dose dependent
Source text: We examined the role of ApoA1 tryptophan residues next by altering each of the four tryptophan residues to either leucine (rh-ApoA1 4WL) or phenylalanine (rh-ApoA1 4WF). […] Thus, the loss of efflux and lipid binding activity of the 4WL variant cannot be attributed to loss of helical content.

[2] = test system: RAW 264.7 murine macrophage cells; test: ABCA1-dependent cholesterol efflux assay; type: cell-based; settings: unoxidised protein/peptide, 4 hr incubation with [3H]cholesterol labeled RAW264.7 cells pretreated with 0.3 mM 8Br-cAMP
Experimental: ApoA1 (filled circles, solid line) and reductively methylated ApoA1 (open circles, dashed line) were subjected to modification by MPO at varying H2O2:ApoA1 mole ratios. These proteins were then assayed for ABCA1 dependent cellular cholesterol acceptor activity during a 4 hr incubation at 5 μg/ml with cholesterol labeled RAW264.7 cells, which had been treated with 0.3 mM 8Br-cAMP to induce ABCA1. Data are means±S.D. of triplicate determinations, when no bars appear, the S.D. is within the symbol.
(§1) RAW 264.7 murine macrophage cells were labeled with [3H] cholesterol and treated with 0.3 mmol/L 8Br-cAMP to induce ABCA1 activity, as previously described. The cells were washed and chased for 4 hours in serum-free medium in the presence of 0.3 mmol/L 8Br-cAMP and the presence or absence of various ApoA1 preparations. The radioactivity in the chase media was determined after brief centrifugation to pellet debris. Radioactivity in the cells was determined by extraction in hexane:isopropanol (3:2) with the solvent evaporated in a scintillation vial prior to counting. The percent cholesterol efflux was calculated as 100×(medium dpm)/(medium dpm+cell dpm).

[3] = test system: human low density lipoprotein; test: Lipid binding activity assay: inhibition of phospholipase C (PLC)-mediated aggregation of LDL; type: biochemical; settings: for lipid binding activity after MPO modification: PLC mediated LDL aggregation assay, MPO at varying H2O2:ApoA1 mole ratios
Experimental: (§2) MPO at a final concentration of 57 nmol/L, prepared as previously described, was added to ApoA1 at 100 μg/mL (3.5 μmol/L) that had been extensively dialyzed against MPO reaction buffer. The reaction was initiated by adding hydrogen peroxide at varying mole ratios to ApoA1 in 4 aliquots at 15-minute intervals at 37° C., and continuing the incubation for 90 minutes, at which time 2 mmol/L L-methionine was added to quench the reaction. For chemical modification of ApoA1, sodium hypochlorite (NaOCI) was added to 100 μg/mL ApoA1 in MPO buffer at varying concentrations in 4 aliquots at 15 minutes intervals at 37° C. After a total incubation time of 60 minutes, 2 mmol/L L-metbionine was added to quench the reaction.
Lipid binding activity of ApoA1 was assessed via the inhibition of phospholipase C (PLC)-mediated aggregation of human low density lipoprotein, performed as previously described. We have previously shown that this assay give results similar to those observed by the DMPC dispersion clearance assay, but it is more sensitive and requires less ApoA1. The final concentration of apoA1 used in this assay as 12.5 μg/mL. which was sufficient to decrease the initial rate LDL aggregation by ≈75%.

[4] = DMPC emulsion clearance assay (lipid binding); type: biochemical; settings: 25 μg protein, 125 μg DMPC, absorbance at 325 nm, 24° C.
Experimental: FIGS. 7 (A-B) illustrate plots showing that rh-ApoA1 4WF binds lipid as well as rh-ApoA1 and its lipid binding activity is resistant to MPO mediated oxidation. A. Dimyristoyl phosphatidylcholine (DMPC) emulsions (125 μg) were prepared and incubated without addition (solid thick line) or with the addition of 25 μg rh-ApoA1 (solid thin line) or rh-ApoA1 4WF (dotted line). Lipid binding and solubilization was monitored by loss of turbidity by reading absorbance at 325 nm over time at 24° C. […] B. rh-ApoA1 (filled circles, solid line) and rh-ApoA1 4WF (open circles, dashed line) were subjected to modification by MPO at varying H2O2:ApoA1 mole ratios. These proteins were then assayed for lipid binding activity by prevention of phospholipase C dependent LDL aggregation. Data are normalized to the lipid binding activity of rh-ApoA1 treated in the absence of H2O2. Data are means±S.D. of triplicate determinations. *, p<0.05; and **, p<0.001 vs. rh-ApoA1 4WF at the same H2O2: ApoA1 mole ratio, respectively, by two tailed t-test.

[5] = test system: RAW 264.7 murine macrophage cells; test: HOCl (sodium hypochlorite) modification of ApoA1, then ABCA1-dependent cholesterol efflux assay; type: cell-based; settings: increasing doses of HOCl (varying HOCl:ApoA1 mole ratios)
Experimental: as §2, §1

[6] = test system: RAW 264.7 murine macrophage cells; test: MPO/H2O2/Cl- modification of ApoA1, then ABCA1-dependent cholesterol efflux assay; type: cell-based; settings: for MPO mediated loss of cholesterol acceptor activity, high dose: H2O2:apoAI = 15:1, 3MV with or without the N-terminal methionine; for loss of cholesterol acceptor activity: MPO modification at H2O2:ApoA1 ratio of 1.4; for ABCA1-dependent cholesterol acceptor activity after MPO modification: MPO/H2O2/Cl- system at varying (increasing) H2O2:ApoA1 mole ratios
Experimental: as §2, §1

Molecule | alpha helix content [1] [%] | loss of alpha helix content after MPO modification [1] | ABCA1-dependent cholesterol acceptor activity [2] | lipid binding activity after MPO modification [3] | lipid binding activity (DMPC clearance) [4] | cholesterol acceptor (efflux) activity after HOCl treatment [5] | MPO mediated loss of cholesterol acceptor activity, high dose [6] | loss of cholesterol acceptor activity [6] | ABCA1-dependent cholesterol acceptor activity after MPO modification [6] | decrease of the initial rate of LDL aggregation ([3]; apoA1 final concentration 12.5 μg/mL) | ABCA1-dependent cholesterol acceptor activity ([2]; listed as 4WL variant) | ABCA1-dependent cholesterol acceptor activity ([2]; listed as 4WF variant) | lipid binding activity (DMPC clearance) ([4]; listed as 4WF variant)
rh-ApoA1: recombinant human ApoA1, with an additional methionine initiation codon and a 6-his tag at the N-terminus | 57 | susceptible to loss of alpha helical content | yielded ABCA1 dependent cholesterol acceptor activity | diminished lipid binding activity | equivalent activity | impaired by increasing doses of HOCl | equally susceptible | negligible loss | inhibited by increasing MPO induced oxidation | – | – | – | –
methylated ApoA1: ApoA1 subjected to reductive methylation, leading to 92% lysine modification | – | similarly susceptible | robust and equivalent | – | – | – | – | – | declined in a similar fashion | – | – | – | –
ApoA1: human plasma-derived ApoA1 | – | similarly susceptible | robust and equivalent | – | – | – | – | – | declined in a similar fashion | ≈ 75% | – | – | –
rh-ApoA1 3MV: rh-ApoA1 with the three internal methionines converted to valines (protein, UniProt P02647 25-267, looked up, variant M86V M112V M148V) Apolipoprotein A-I: DEPPQSPWDRVKDLATVYVDVLKDSGRDYVSQFEGSALGKQLNLKLLDNWDSVTSTFSKLREQLGPVTQEFWDNLEKETEGLRQEVSKDLEEVKAKVQPYLDDFQKKWQEEVELYRQKVEPLRAELQEGARQKLHELQEKLSPLGEEVRDRARAHVDALRTHLAPYSDELRQRLAARLEALKENGGARLAEYHAKATEHLSTLSEKAKPALEDLRQGLLPVLESFKVSFLSALEEYTKKLNTQ | – | – | – | – | – | – | equally susceptible | lost about half of its cholesterol acceptor activity | more sensitive to loss of cholesterol acceptor activity at low molar ratios | – | – | – | –
rh-ApoA1 4WL: rh-ApoA1 with each of the four tryptophan residues altered to leucine (protein, UniProt P02647 25-267, looked up, variant W8L W50L W72L W108L) Apolipoprotein A-I: DEPPQSPLDRVKDLATVYVDVLKDSGRDYVSQFEGSALGKQLNLKLLDNLDSVTSTFSKLREQLGPVTQEFLDNLEKETEGLRQEMSKDLEEVKAKVQPYLDDFQKKLQEEMELYRQKVEPLRAELQEGARQKLHELQEKLSPLGEEMRDRARAHVDALRTHLAPYSDELRQRLAARLEALKENGGARLAEYHAKATEHLSTLSEKAKPALEDLRQGLLPVLESFKVSFLSALEEYTKKLNTQ | 79 | – | – | – | – | – | – | – | – | – | lost the majority of this activity | – | –
rh-ApoA1 4WF: rh-ApoA1 with each of the four tryptophan residues altered to phenylalanine (protein, UniProt P02647 25-267, looked up, variant W8F W50F W72F W108F) Apolipoprotein A-I: DEPPQSPFDRVKDLATVYVDVLKDSGRDYVSQFEGSALGKQLNLKLLDNFDSVTSTFSKLREQLGPVTQEFFDNLEKETEGLRQEMSKDLEEVKAKVQPYLDDFQKKFQEEMELYRQKVEPLRAELQEGARQKLHELQEKLSPLGEEMRDRARAHVDALRTHLAPYSDELRQRLAARLEALKENGGARLAEYHAKATEHLSTLSEKAKPALEDLRQGLLPVLESFKVSFLSALEEYTKKLNTQ | 77 | susceptible to loss of alpha helical content | – | resistant to MPO mediated inhibition; also recorded: did not loose its lipid binding activity | – | resistant to this treatment | – | – | maintained this activity even at an H2O2:ApoA1 ratio of 15 | – | – | largely retained this activity | equivalent activity
